Measurements reported in patent US9724426B2, “Agents, uses and methods” (AFFINICON APS, priority 2009, dated 2017).
Values joined by “and” are separate entries in the source; they are usually repeats but may differ in a detail not shown here. Equal values may be shown once.

What was measured:
[1] = target: T1, CD163 on CD14+ peripheral blood monocytes (Homo sapiens, UniProt Q86VB7); experiment: Quantitative flow cytometry of monocyte surface CD163 expression with different anti-CD163 clones; type: cell-based
T1 construct: endogenous in cells; host or cells: human peripheral blood monocytes, monocyte-derived macrophages, blood dendritic cells
T1 sequence (Q86VB7 42-1156): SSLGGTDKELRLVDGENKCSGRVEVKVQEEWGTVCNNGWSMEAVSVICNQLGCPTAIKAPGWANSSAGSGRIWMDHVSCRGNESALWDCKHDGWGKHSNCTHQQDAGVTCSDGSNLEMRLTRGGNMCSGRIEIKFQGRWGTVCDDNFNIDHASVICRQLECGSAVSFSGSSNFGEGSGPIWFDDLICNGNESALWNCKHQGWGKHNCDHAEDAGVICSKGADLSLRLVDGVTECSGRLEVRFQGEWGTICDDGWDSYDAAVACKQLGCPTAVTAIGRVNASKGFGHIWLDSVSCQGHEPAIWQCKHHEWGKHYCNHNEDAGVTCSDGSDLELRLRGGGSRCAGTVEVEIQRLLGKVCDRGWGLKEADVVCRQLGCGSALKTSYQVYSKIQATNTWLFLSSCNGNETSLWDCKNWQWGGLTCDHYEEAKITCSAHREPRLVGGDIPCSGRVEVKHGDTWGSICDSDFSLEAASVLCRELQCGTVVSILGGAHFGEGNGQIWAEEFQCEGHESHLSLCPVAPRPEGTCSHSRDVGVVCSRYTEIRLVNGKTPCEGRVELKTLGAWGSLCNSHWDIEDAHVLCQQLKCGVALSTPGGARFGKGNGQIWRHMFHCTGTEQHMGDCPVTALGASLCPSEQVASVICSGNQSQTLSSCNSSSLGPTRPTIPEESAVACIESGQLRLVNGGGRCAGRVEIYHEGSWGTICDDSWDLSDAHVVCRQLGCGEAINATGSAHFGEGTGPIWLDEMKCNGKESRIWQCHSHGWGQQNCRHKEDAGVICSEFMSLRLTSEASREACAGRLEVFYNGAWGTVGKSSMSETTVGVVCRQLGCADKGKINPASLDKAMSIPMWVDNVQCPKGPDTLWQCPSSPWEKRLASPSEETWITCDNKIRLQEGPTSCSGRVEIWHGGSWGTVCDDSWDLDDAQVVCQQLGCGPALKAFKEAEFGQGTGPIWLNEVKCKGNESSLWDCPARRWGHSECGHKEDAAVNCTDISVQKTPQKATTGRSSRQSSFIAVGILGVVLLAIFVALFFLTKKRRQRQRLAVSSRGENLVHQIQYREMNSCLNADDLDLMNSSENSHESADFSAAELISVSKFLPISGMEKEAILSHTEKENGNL
Description: Freshly drawn peripheral whole blood samples or PBMC (approx. 3×10^6 cells) were stained with isotype-matched control antibody or a relevant antibody for one hour at 4° C. in the dark. When staining whole blood, erythrocytes were lysed for 15 min with 4° C. cold solution of ammonium chloride. When indirect immunofluoresence staining was required, cells were initially incubated with unconjugated primary CD163 antibody for one hour at 4° C., washed three times with D-PBS, pH 7.4, followed by incubation with goat anti-mouse-conjugated Alexa-Fluor® 488 (1:200 dilution; Molecular Probes, Invitrogen, Carlsbad, Calif., USA) for one hour at 4° C. in the dark. The stained cells were washed twice three D-PBS, pH 7.4, re-suspended in 400 μl FACSflow (Becton Dickinson, San Jose, Calif., USA), and kept on ice until analysis. All samples were analyzed using a FACSCalibur flow cytometer and compensated for spectral overlap using FlowJo for Macintosh software version 8.3 (TreeStar, San Carlos, Calif.). For CD163 density quantitation, flow cytometric estimation of antibodies bound/cell (ABCs) was performed using Quantibrite PE beads (Becton Dickinson, San Jose, Calif., USA) as recommended by the manufacturer. After the cells were stained, as detailed, a set of 4 pre-calibrated fluorescently labeled beads was used for standardization before the samples were acquired. The Quantibrite PE beads were run at the same instrument settings as the assay, and the linear regression obtained using the Quantibrite PE beads was used to convert the FL2 linear fluorescence staining of cell population into the number of (CD163) PE molecules bound per cell (ABC).

[2] = target: T2, CD163 on peripheral blood dendritic cells (Homo sapiens, UniProt Q86VB7); experiment: Flow cytometry of CD163 expression on peripheral blood dendritic cells; type: cell-based; settings: CD14-ILT3+HLA-DR+ dendritic cells
T2 construct: endogenous in cells; host or cells: human peripheral blood monocytes, monocyte-derived macrophages, blood dendritic cells
T2 sequence (Q86VB7 42-1156): as above
Excerpt: Freshly drawn peripheral whole blood samples (approx. 3×10^6 cells) were stained with isotype-matched control antibody (Mouse IgG1 PE, k isotype control, MOPC-21, BD Pharmingen™, San Diego, Calif., USA) or a relevant antibody (anti-CD3 FITC, UCHT1, BD Biosciences, San Diego, Calif., USA; anti-CD11c FITC, KB90, DAKO A/S, Glostrup, Denmark; anti-CD14 FITC, RMO52, IOTests®, Beckman and Coulter, Marseille, France; anti-CD16 FITC, 3G8, BD Biosciences, San Diego, Calif., USA; anti-CD19 FITC, SJ25C1, BD Biosciences, San Diego, Calif., USA; anti-CD20 FITC, CAT 13.6E12, Diatec.com A/S, Oslo, Norway; anti-CD56 FITC, NCAM16.2, BD Biosciences, San Diego, Calif., USA; anti-CD91 FITC, A2MR-a2, BD Biosciences, San Diego, Calif.; anti-HLA-DR FITC, EDU-1, Diatec.com A/S, Oslo, Norway; anti-CD163 PE, MAC2-158, IQ Products, Groningen, The Netherlands; anti-CD163 PE, GHI/61, BD Biosciences, CA, USA; anti-ILT3/CD85k PE-Cy5, ZM3.8, IOTests®, Beckman and Coulter, Marseille, France; anti-HLA-DR PerCP, L234, BD Biosciences, San Diego, Calif.; anti-CD4 APC, EDU-2, Diatec.com A/S, Oslo, Norway; anti-CD14 APC, 18D11, Diatec.com A/S, Oslo, Norway) for 15 minutes at room temperature in the dark. […] For CD163 density quantitation, flow cytometric estimation of antibodies bound/cell (ABCs) was performed using Quantibrite PE beads (Becton Dickinson, San Jose, Calif., USA) as recommended by the manufacturer. […]

B1: Mac2-158: murine anti-human CD163 mAb binding SRCR domain 1; VH SEQ ID NO:20, VL SEQ ID NO:21; IQ Products (antibody, V domains shown)
VH: DVQLQESGPGLVKPSQSLSLTCTVTGYSITSDYAWNWIRQFPGNKLEWMGYITYSGITNYNPSLKSQISITRDTSKNQFFLQLNSVTTEDTATYYCVSGTYYFDYWGQGTTLTVSS
VL: SVVMTQTPKSLLISIGDRVTITCKASQSVSSDVAWFQQKPGQSPKPLIYYASNRYTGVPDRFTGSGYGTDFTFTISSVQAEDLAVYFCGQDYTSPRTFGGGTKLEIKRA
modifications: Mac2-158 VH sequence; Mac2-158 VL sequence
notes: IQ Products
With B1 the “density of CD163 receptors per monocyte” value ([1]; citrate stabilized whole blood) was 17,726, the “fraction of CD14+ monocytes stained positive for CD163” value (shortened to “fraction … for CD163”) ([1]; citrate stabilized whole blood) was 83.97% and the “fraction … for CD163” value ([1]; freshly drawn EDTA stabilized whole blood) was 84.06% and 87.23%. The “density of CD163 receptors per monocyte” value ([1]; heparin stabilized whole blood) was 18,929, the “fraction … for CD163” value ([1]; heparin stabilized whole blood) was 84.43% and the “fraction of peripheral blood dendritic cells recognized as CD163 expressing” value [2] was 32.3%.
